Measurements from US8530168B2, “Fusion protein comprising a Caspase domain and a nuclear hormone receptor binding domain and methods and uses thereof” (Helmholtz Zentrum Munich Deutsches Forschungszentrum fuer …, priority 2007, dated 2013).

Key:
[1] = test system: M5/N9 cells expressing myrCasp8-ER(T2); test: Ligand dose response, MTT assay, in cells expressing myrCasp8-ER(T2); assay type: cell-based, murine; settings: 48 hours, data not shown
Experimental: (b) Transient cotransfection of a β-galactosidase reporter with a Cre-ER(T2), myrCasp8-ER(T2), or Casp9-ER(T2) expression plasmid into murine M5/N9 (black columns), human HeLa (grey columns) or zebrafish Pac2 (open columns) cells. 12 h following transfection, cells were cultured for 36 h with 4-OH-tamoxifen at 10^−8 M and the activity of β-galactosidase in cell lysates was determined. Values obtained from transfections of the Cre-ER(T2) vector were defined as reference.
To quantify 4-OH-tamoxifen-inducible cell death, we applied the colorimetric MTT assay (Mossman, J. Immunol. Methods, 65, 55 (1983)) allowing the quantification of cell survival. Cells (4·10^3) were plated on 96-well plates. The assay was carried out in three replicas for each sample treated with and without 4-OH-tamoxifen. After 12 h, medium was replaced either with fresh medium or with medium supplemented with 10^−8 M 4-OH-tamoxifen. […] The crystals were dissolved in 150 μl 0.04 N HCl/isopropanol to give a homogeneous blue solution suitable for absorbance measurement at a wavelength of 570 nm on the Synergy™ HT Multi-Detection Microplate Reader (BioTek).
Cell viability was determined following 48 hours of incubation with the respective ligand at concentrations ranging from 10^−6 M to 10^−12 M by using the MTT assay. […]

MEF5/N9 cells [2] = test: Visible phenotypic changes / viability of stably transfected MEF5/N9 clones on 4-OH-tamoxifen treatment; assay type: cell-based, mouse; settings: 10^−8 M 4-OH-tamoxifen, 24 h
Experimental: (§1) To generate stably transfected MEF5/N9 cells, 2·10^6 cells were coelectroporated with 32 μg ER(T2) fusion plasmid DNA linearised with ScaI and 8 μg pPgk-hygro-pA plasmid DNA linearised with XhoI and plated into two 96-well plates. The cells were grown in DMEM medium (Invitrogen) supplemented with 2 mM Glutamine and 10% fetal calf serum at 37° C., 5% CO2 in humid atmosphere, and passaged upon trypsinization. Two days after transfection the medium was supplemented with 250 U/ml of hygromycin (Calbiochem) for the selection of stable integrants. Upon the growth of resistant colonies these were individually expanded in the presence of hygromycin.
To examine 4-OH-tamoxifen-dependent cell death, 1·10^5 MEF5/N9 cells expressing ER(T2) fusion proteins were plated into each well of a six-well plate. The following day, for each sample the medium in two of four individual wells were replaced with medium supplemented with 10^−8 M 4-hydroxy-tamoxifen. 24 hours after induction with 4-OH-tamoxifen, cells were photographed through a Leica DMI6000B fluorescence microscope with phase contrast either at 10-fold or 20-fold magnification.
Since the responsiveness of the clones, transfected with the same construct, to 4-OH-tamoxifen differed only slightly from each other, only the results obtained from one clone for each construct are shown in the figure.

MEF5/N9 cells [3] = test: MTT cytotoxicity assay of stably transfected MEF5/N9 clones; assay type: cell-based, mouse; settings: 10^−8 M 4-OH-tamoxifen, 48 h
Experimental: as §1
To quantify 4-OH-tamoxifen-inducible cell death, we applied the colorimetric MTT assay (Mossman, J. Immunol. Methods, 65, 55 (1983)) allowing the quantification of cell survival. Cells (4·10^3) were plated on 96-well plates. The assay was carried out in three replicas for each sample treated with and without 4-OH-tamoxifen. After 12 h, medium was replaced either with fresh medium or with medium supplemented with 10^−8 M 4-OH-tamoxifen. Following 48 h of 4-OH-tamoxifen treatment, sterile filtered MTT reagent in PBS (Sigma) was added at the concentration of 0.5 mg/ml. Incubation occurred for 4 hours at 37° C. With ongoing reaction time, dark violet MTT formazan crystals appeared on the bottom of the wells containing living cells. The crystals were dissolved in 150 μl 0.04 N HCl/isopropanol to give a homogeneous blue solution suitable for absorbance measurement at a wavelength of 570 nm on the Synergy™ HT Multi-Detection Microplate Reader (BioTek).

MEF5/N9 cells [4] = test: Transient cotransfection of ER(T2) fusion expression vectors with β-galactosidase reporter; β-galactosidase activity in lysates; assay type: cell-based, mouse; settings: no 4-OH-tamoxifen; transient transfection 50 or 100 ng vector; relative to Cre-ER(T2) without 4-OH-tamoxifen
MEF5/N9 cells [5] = test: as above; assay type: cell-based, mouse; settings: 10^−8 M 4-OH-tamoxifen, 48 h; for relative β-galactosidase activity in presence of 4-OH-tamoxifen compared to the negative control: relative to Cre-ER(T2) without 4-OH-tamoxifen
Experimental: The transformed mouse embryonic fibroblast cell line MEF5/N9 (Schwenk et al., Nucleic Acids Research, 26(6) 1427-1432 (1998)) was obtained from Michel Aguet (University of Zurich, Switzerland). The cells were grown in DMEM medium (Life Technologies) supplemented with 2 mM […] and 10% fetal calf serum at 37° C., 5% CO2 in humid atmosphere and passaged upon trypsinization. One day before transient transfection 4·10^4 cells were plated into a 24-well plate (Falcon). For the transient transfection of MEF5/N9 cells with plasmids, each well received into 500 μl of medium a total amount of 150 ng or 200 ng supercoiled plasmid DNA complexed before with the FuGene6 transfection reagent (Roche Diagnostics GmbH, Mannheim, Germany) according to the manufacturer's protocol. Each 150 ng or 200 ng DNA preparation (FIG. 2 sample 1 to 11) contained 100 ng of the β-Galactosidase expression vector pCMV-β-gal-pA (pCMVβ, Clontech, FIG. 1G, SEQ ID NO: 56), and 100 ng of the fusion ER(T2) expression vectors to be tested (FIG. 2 sample 3-7, 10-11) and the control plasmids (FIG. 2 sample 1-3), except for the samples with the plasmids pCAG-Casp9full-ER(T2)-bpA (FIG. 2 sample 8) and pCAG-Casp9trunc-ER(T2)-bpA (FIG. 2 sample 9), respectively, that received 50 ng of the test vector. For each sample to be tested four individual wells were transfected. Five hours after the addition of the DNA preparations each well received additional 500 μl of growth medium. The following day, the medium of two wells of each sample was replaced by fresh medium. The other two wells received medium containing 10^−8 M 4-hydroxy-tamoxifen (Sigma). 48 hours after induction with 4-OH-tamoxifen, the cells of each well were lysed with 200 μl lysate reagent supplemented with protease inhibitors (Roche Diagnostics GmbH). The lysates were centrifuged and 50 μl were used to determine the β-galactosidase activities using the β-galactosidase reporter gene assay (Roche Diagnostics GmbH) according to the manufacturer's protocol in a microplate luminometer (Berthold Detection Systems GmbH). The mean value and standard deviation of the samples was calculated from the β-galactosidase RLU values obtained from the two transfected wells of each sample. The relative β-galactosidase activity was obtained by comparison to the negative control (pCAG-Cre-ER(T2)-bpA) without 4-OH-tamoxifen.
To investigate the cell death effect of the different ER(T2) fusion constructs quantitatively, we performed transient cotransfections of the ER(T2) fusion protein expression vectors together with a fixed amount of a reporter plasmid coding for β-galactosidase in MEF5/N9 fibroblast cells. Transfected cells were treated 12 hours after transfection with 4-OH-tamoxifen at a concentration of 10^−8 M. Following 48 hours of 4-OH-tamoxifen induction, the cells from the various samples were lysed and the activity of β-galactosidase in the lysates was determined by a chemiluminescence assay and expressed in “Relative Light Units” (RLU) (FIG. 2). As positive controls for 4-OH-tamoxifen-inducible cell death, we prepared samples transfected with the constructs pCAG-HAFas-ER(T2) or pCAG-MFas-ER(T2) together with the reporter plasmid and treatment with 4-OH-tamoxifen. As negative control for this assay served samples which received the reporter plasmid together with the expression vector pCAG-Cre-ER(T2) and that were treated with 4-OH-tamoxifen.
To determine the relative activity of the tested ER(T2) fusion constructs inducing apoptosis in the presence of 4-OH-tamoxifen, the RLU values of β-galactosidase activity were divided individually for each sample by the RLU value obtained from the sample which received the plasmid pCAG-Cre-ER(T2) but was not treated with 4-OH-tamoxifen (defined as negative control). The relative activity of the tested Caspase- or bax-ER(T2) fusion proteins was then compared to the negative control for 4-OH-tamoxifen-dependent cell death defined as an activity of 1.

Row | Molecule | ligand concentration required to induce cell death [1] | 4-OH-tamoxifen-dependent cell death, phenotype of stable clones (MEF5/N9 cells [2]) | cell viability in the presence of 4-OH-tamoxifen (MTT) (MEF5/N9 cells [3]) | basal toxicity: relative β-galactosidase activity compared to the negative control in absence of 4-OH-tamoxifen (MEF5/N9 cells [4]) | relative β-galactosidase activity in presence of 4-OH-tamoxifen compared to the negative control (MEF5/N9 cells [5]) | 4-OH-tamoxifen-dependent cell death, phenotype of stable clones (MEF5/N9 cells [2]; listed as Casp3ER) | 4-OH-tamoxifen-dependent activity / toxicity in transient transfection (in words) (MEF5/N9 cells [5])
1 | C[C@]12CC[C@@H]3c4ccc(O)cc4CC[C@H]3[C@@H]1CC[C@@H]2O [E2, 17-β-estradiol] | ≥ 10^−7 M |  |  |  |  |  | 
2 | HAFas-ER(T2): HA epitope, transmembrane and intracellular domain of murine Fas (135-305) fused to ER(T2); planned positive control (protein, fusion protein HAFas-ER(T2), planned positive control) MGYPYDVPDYATSNTNCRKQSPRNRLWLLTILVLLIPLVFIYRKYRKRKCWKRRQDDPESRTSSRETIPMNASNLSLSKYIPRIAEDMTIQEAKKFARENNIKEGKIDEIMHDSIQDTAEQKVQLLLCWYQSHGKSDAYQDLIKGLKKAECRRTLDKFQDMVQKDLGKSTPDTGNENEGQCLVEPSAGDMRAANLWPSPLMIKRSKKNSLALSLTADQMVSALLDAEPPILYSEYDPTRPFSEASMMGLLTNLADRELVHMINWAKRVPGFVDLTLHDQVHLLECAWLEILMIGLVWRSMEHPVKLLFAPNLLLDRNQGKCVEGMVEIFDMLLATSSRFRMMNLQGEEFVCLKSIILLNSGVYTFLSSTLKSLEEKDHIHRVLDKITDTLIHLMAKAGLTLQQQHQRLAQLLLILSHIRHMSNKGMEHLYSMKCKNVVPLYDLLLEAADAHRLHAPTSRGGASVEETDQSHLATAGSTSSHSLQKYYITGEAEGFPATA |  | not affected by the treatment with 4-OH-tamoxifen | not affected by treatment with 4-OH-tamoxifen | 52% | 23% |  | 
3 | MFas-ER(T2): membrane-targeting signal peptide, transmembrane and intracellular domain of murine Fas fused to ER(T2); planned positive control (protein, fusion protein MFas-ER(T2), membrane-targeting signal peptide, transmembrane and intracellular domain of murine Fas fused to ER(T2); planned positive control) MLWIWAVLPLVLAGSQLRVHTTSNTNCRKQSPRNRLWLLTILVLLIPLVFIYRKYRKRKCWKRRQDDPESRTSSRETIPMNASNLSLSKYIPRIAEDMTIQEAKKFARENNIKEGKIDEIMHDSIQDTAEQKVQLLLCWYQSHGKSDAYQDLIKGLKKAECRRTLDKFQDMVQKDLGKSTPDTGNENEGQCLVEPSAGDMRAANLWPSPLMIKRSKKNSLALSLTADQMVSALLDAEPPILYSEYDPTRPFSEASMMGLLTNLADRELVHMINWAKRVPGFVDLTLHDQVHLLECAWLEILMIGLVWRSMEHPVKLLFAPNLLLDRNQGKCVEGMVEIFDMLLATSSRFRMMNLQGEEFVCLKSIILLNSGVYTFLSSTLKSLEEKDHIHRVLDKITDTLIHLMAKAGLTLQQQHQRLAQLLLILSHIRHMSNKGMEHLYSMKCKNVVPLYDLLLEAADAHRLHAPTSRGGASVEETDQSHLATAGSTSSHSLQKYYITGEAEGFPATA |  | not affected by the treatment with 4-OH-tamoxifen | not affected by treatment with 4-OH-tamoxifen | 60% | 26% |  | 
4 | Casp3-ER(T2): full length murine Caspase-3 fused to ER(T2) ligand binding domain, SEQ ID NO: 37 (protein, fusion gene Casp3-ER(T2)) MENNKTSVDSKSINNFEVKTIHGSKSVDSGIYLDSSYKMDYPEMGICIIINNKNFHKSTGMSSRSGTDVDAANLRETFMGLKYQVRNKNDLTREDILELMDSVSKEDHSKRSSFVCVILSHGDEGVIYGTNGPVELKKLTSFFRGDYCRSLTGKPKLFIIQACRGTELDCGIETDSGTDEEMACQKIPVEADFLYAYSTAPGYYSWRNSKDGSWFIQSLCSMLKLYAHKLEFMHILTRVNRKVATEFESFSLDSTFHAKKQIPCIVSMLTKELYFYHLEPSAGDMRAANLWPSPLMIKRSKKNSLALSLTADQMVSALLDAEPPILYSEYDPTRPFSEASMMGLLTNLADRELVHMINWAKRVPGFVDLTLHDQVHLLECAWLEILMIGLVWRSMEHPVKLLFAPNLLLDRNQGKCVEGMVEIFDMLLATSSRFRMMNLQGEEFVCLKSIILLNSGVYTFLSSTLKSLEEKDHIHRVLDKITDTLIHLMAKAGLTLQQQHQRLAQLLLILSHIRHMSNKGMEHLYSMKCKNVVPLYDLLLEAADAHRLHAPTSRGGASVEETDQSHLATAGSTSSHSLQKYYITGEAEGFPATA |  | neither the two Fas-ER(T2) variants (see FIG. 4 H2, I2) nor Casp3-ER(T2) (FIG. 4 E2) were able to induce apoptosis in the presence of 4-OH-tamoxifen | not affected by treatment with 4-OH-tamoxifen | 52% | 28% | not affected by the treatment with 4-OH-tamoxifen | low compared to the Caspase 8 or Caspase 9 ER(T2) fusion variants
